Data reported in US6617427 (THOMAS JEFFERSON UNIVERSITY, dated 2003).

B1: Tvl-1 N-terminal portion (a.a. 1-96) (other)
chain: MEPTQVAENLVPNQQPPVPDLEDPEDTRDESPENSDTVVLSLFPCTPDAVNPEADASASSLQGSFLKHSTTLTNRQRGNEVSALPATLDSLSIHQL
B2: B42-Tvl-1 fusion (Tvl-1 a.a. 81-269 fused to the activation domain B42) (other, not shown: large carriers)
chain: VSALPATLDSLSIHQLAAQGELSQLKDHLRKGACPACTCLSGNNLINKPDERGFTPLIWASAFGEIETVRFLLDWGADPHILAKERESALSLASMGGYTDIVRLLLDRDVDINIYDWNGGTPLLYAVRGNHVKCVEALLARGADLTTEADSGYTPMDLAVALGYRKVQQVMESHILRLFQSTLGPVDPE
notes: Yeast two-hybrid prey; also called acid blob-Tvl-1
B3: LexA-bicoid (other, UniProt P09081 2-160, looked up)
chain: AQPPPDQNFYHHPLPHTHTHPHPHSHPHPHSHPHPHHQHPQLQLPPQFRNPFDLLFDERTGAINYNYIRPYLPNQMPKPDVFPSEELPDSLVMRRPRRTRTTFTSSQIAELEQHFLQGRYLTAPRLADLSAKLALGTAQVKIWFKNRRRRHKIQSDQHK
notes: not shown: LexA, fusion partner

Tests used:
LexA-Raf-1 = molecular target: T1, LexA-Raf-1 (human, UniProt P0A7C2 1-202; P04049 1-648, limits assumed); assay: yeast two-hybrid (data not shown)
T1 construct: Yeast two-hybrid bait; also called LexA fusion of Raf-1 (#1)

LexA-ftz = molecular target: T2, LexA-ftz (UniProt P02835 1-410, limits assumed); assay: yeast interaction mating, B42 Tvl-1 against LexA fusion (data not shown)
T2 construct: not shown: LexA, fusion partner
T2 sequence (looked up): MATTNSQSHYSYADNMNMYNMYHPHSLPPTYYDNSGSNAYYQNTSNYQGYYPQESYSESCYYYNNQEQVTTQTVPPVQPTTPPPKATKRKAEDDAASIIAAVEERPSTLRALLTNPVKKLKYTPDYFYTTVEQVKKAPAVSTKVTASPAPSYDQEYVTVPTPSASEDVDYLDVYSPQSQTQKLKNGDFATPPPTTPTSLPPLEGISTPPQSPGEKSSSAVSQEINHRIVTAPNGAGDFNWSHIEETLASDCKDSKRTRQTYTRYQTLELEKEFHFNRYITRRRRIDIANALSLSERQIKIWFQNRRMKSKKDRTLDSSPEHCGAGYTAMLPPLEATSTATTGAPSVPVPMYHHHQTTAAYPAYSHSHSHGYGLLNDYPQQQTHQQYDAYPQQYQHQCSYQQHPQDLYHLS

LexA-SSN6 = molecular target: T3, LexA-SSN6 (UniProt P14922 1-966, limits assumed); assay: as above
T3 construct: not shown: LexA, fusion partner
T3 sequence (P14922 whole entry, the tested form may be a part): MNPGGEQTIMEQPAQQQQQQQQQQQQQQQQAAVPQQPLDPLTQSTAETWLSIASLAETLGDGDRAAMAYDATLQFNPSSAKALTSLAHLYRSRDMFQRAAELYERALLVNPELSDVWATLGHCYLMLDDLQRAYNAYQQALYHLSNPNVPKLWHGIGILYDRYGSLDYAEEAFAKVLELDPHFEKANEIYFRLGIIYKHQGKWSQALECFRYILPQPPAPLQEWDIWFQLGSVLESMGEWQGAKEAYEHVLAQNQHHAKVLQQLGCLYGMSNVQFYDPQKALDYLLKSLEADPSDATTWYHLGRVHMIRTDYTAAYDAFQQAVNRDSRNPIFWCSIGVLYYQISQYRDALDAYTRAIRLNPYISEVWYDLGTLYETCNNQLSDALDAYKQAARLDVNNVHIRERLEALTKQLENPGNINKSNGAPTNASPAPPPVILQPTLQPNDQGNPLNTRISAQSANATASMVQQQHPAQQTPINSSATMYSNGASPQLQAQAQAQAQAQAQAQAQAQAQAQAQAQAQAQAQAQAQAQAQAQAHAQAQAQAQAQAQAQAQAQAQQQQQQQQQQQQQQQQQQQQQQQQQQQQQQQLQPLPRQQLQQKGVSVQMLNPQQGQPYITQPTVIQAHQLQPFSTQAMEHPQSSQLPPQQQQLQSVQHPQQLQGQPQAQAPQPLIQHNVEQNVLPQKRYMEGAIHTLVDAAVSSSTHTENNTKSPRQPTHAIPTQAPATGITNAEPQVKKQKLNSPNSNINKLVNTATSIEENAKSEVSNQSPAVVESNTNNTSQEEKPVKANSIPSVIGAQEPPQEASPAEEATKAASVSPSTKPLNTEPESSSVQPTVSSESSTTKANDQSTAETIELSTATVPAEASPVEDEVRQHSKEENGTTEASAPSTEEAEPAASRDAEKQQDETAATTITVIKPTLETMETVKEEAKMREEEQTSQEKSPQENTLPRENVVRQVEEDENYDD

LexA-daughterless = molecular target: T4, LexA-daughterless (UniProt P11420 1-710, limits assumed); assay: as above
T4 construct: not shown: LexA, fusion partner
T4 sequence (looked up): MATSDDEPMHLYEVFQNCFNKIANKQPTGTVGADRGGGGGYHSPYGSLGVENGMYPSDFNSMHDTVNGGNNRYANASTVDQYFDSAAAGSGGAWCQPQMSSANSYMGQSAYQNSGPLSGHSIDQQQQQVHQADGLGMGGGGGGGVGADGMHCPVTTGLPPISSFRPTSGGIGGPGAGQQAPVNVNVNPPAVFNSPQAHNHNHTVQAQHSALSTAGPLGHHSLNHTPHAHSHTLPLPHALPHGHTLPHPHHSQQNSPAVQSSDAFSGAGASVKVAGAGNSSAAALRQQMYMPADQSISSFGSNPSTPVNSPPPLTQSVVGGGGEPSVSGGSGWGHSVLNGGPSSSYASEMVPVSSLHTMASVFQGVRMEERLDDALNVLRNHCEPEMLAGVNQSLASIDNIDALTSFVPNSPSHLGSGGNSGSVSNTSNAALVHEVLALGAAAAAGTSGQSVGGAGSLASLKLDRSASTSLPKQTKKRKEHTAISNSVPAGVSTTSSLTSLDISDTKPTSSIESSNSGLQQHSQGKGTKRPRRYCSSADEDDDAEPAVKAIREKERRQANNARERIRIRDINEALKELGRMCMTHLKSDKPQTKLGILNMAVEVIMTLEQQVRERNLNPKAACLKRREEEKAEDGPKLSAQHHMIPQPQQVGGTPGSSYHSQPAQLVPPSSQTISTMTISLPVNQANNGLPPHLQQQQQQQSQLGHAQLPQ

LexA-DMcdc2 = molecular target: T5, LexA-DMcdc2 (UniProt P23572 1-297); assay: as above
T5 construct: not shown: LexA, fusion partner
T5 sequence (P23572 whole entry, the tested form may be a part): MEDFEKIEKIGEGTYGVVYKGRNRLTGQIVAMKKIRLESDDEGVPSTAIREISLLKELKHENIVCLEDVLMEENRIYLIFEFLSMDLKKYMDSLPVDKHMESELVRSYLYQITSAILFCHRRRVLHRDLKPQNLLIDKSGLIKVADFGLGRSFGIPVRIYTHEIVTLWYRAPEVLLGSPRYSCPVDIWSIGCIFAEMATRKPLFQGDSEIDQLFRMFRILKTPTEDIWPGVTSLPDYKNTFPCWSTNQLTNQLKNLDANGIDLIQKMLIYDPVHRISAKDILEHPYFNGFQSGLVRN

LexA-CLN3 = molecular target: T6, LexA-CLN3 (UniProt P13365 1-580, limits assumed); assay: as above
T6 construct: not shown: LexA, fusion partner
T6 sequence (looked up): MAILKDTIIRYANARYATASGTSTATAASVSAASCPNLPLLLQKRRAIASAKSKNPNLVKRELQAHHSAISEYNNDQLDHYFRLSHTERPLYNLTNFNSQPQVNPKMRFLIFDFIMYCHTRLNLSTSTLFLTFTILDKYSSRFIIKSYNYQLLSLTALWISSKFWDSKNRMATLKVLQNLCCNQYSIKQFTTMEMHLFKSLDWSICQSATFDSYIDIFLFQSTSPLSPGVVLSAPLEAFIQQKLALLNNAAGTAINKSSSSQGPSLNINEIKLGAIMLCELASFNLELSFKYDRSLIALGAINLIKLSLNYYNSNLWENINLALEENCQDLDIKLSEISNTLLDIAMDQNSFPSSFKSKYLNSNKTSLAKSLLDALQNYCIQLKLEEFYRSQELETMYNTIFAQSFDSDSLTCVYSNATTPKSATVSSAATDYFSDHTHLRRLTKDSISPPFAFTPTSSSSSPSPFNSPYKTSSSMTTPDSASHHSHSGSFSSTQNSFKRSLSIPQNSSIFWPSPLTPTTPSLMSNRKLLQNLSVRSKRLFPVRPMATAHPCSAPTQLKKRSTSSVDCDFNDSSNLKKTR

LexA-hairy = molecular target: T7, LexA-hairy (UniProt P14003 1-337, limits assumed); assay: as above
T7 construct: not shown: LexA, fusion partner
T7 sequence (looked up): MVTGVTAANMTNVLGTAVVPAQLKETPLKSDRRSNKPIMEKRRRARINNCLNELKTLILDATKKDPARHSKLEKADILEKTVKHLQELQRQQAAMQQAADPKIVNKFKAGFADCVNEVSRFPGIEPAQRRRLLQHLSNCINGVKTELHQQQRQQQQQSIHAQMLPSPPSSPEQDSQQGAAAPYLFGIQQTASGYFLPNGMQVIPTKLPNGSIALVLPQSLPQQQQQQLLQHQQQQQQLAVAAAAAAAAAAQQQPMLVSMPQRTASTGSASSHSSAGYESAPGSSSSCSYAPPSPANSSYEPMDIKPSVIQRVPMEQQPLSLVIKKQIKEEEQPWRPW

[1] = molecular target: B2; assay: as above

B1: no binding (LexA-Raf-1).

B2: no binding (LexA-ftz); no binding (LexA-SSN6); no binding (LexA-daughterless). B2: no binding (LexA-DMcdc2); no binding (LexA-CLN3); no binding (LexA-hairy).

B3: no binding [1].
